One experiment concerns the target SAR1A (human) (UniProt Q9NR31). In words: liposome flotation.
For the next experiment, the target named is SAR1B>A-helix (human) (UniProt Q9Y6B6). In words: liposome flotation.

The source of these data is publication doi:10.1101/2020.02.09.940833.

Chain of SEC23A (Q15436 whole entry): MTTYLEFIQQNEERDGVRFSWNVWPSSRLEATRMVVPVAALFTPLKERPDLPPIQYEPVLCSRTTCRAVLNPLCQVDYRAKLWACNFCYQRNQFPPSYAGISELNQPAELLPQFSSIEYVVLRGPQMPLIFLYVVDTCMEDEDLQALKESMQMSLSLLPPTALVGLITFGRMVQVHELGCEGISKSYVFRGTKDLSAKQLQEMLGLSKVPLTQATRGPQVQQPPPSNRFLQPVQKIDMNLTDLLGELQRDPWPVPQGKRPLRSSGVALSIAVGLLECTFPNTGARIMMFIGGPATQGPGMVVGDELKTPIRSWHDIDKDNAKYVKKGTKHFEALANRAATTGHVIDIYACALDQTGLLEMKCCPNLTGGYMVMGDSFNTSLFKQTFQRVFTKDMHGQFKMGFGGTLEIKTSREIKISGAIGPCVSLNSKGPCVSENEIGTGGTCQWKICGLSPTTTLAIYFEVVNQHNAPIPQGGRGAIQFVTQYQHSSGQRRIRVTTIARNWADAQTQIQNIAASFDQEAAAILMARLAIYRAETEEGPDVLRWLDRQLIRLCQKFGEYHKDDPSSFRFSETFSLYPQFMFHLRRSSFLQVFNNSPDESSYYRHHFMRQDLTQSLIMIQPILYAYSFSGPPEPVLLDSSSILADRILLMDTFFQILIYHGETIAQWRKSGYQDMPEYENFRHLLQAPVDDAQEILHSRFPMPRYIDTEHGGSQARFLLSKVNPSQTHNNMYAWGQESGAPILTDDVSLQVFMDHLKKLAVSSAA
Chain of SAR1A (human) (Q9NR31 whole entry): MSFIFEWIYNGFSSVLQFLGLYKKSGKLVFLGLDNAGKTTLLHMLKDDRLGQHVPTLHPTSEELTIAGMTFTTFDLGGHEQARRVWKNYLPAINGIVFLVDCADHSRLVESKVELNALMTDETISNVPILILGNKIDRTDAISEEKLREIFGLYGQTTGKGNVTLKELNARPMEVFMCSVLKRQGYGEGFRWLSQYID

“GTPase activating fragment of SEC31A (from UniProt O94979 1-1220) (domain or fragment)” registered a fold recruitment relative to SAR1B in the experiment with SAR1A (human) of 2 fold.
Substance “SEC23A (from UniProt Q15436 1-765) (natural protein)” came in with a fold reduction of binding (reference as read: SAR1A>B-helix) with SAR1B>A-helix (human) of 2 fold.
